Results from patent US8367815B2, “Modular polynucleotides for ligand-controlled regulatory systems” (California Institute of Technology, priority 2007, dated 2013).

System: La protein
Assay: qRT-PCR of La protein mRNA from transfected HEK293T tTA-d2EGFP cells
Assay type: cell-based
Procedure: (A) qRT-PCR of La protein mRNA from HEK293T tTA-d2EGFP cells transfected in the presence (▪) or absence (□) of 1.5 mM theophylline. […] Error bars represent quadruplicate qRT-PCR measurements. (B) Curve fit to extrapolate empirical parameters C1-3. Dashed line marks knockdown achieved by base shRNA. (C) Model predictions for dynamic range using empirical parameter values for the GFP experiments along with fshRNA=0.6 and e=0.72 (gray curve) and extrapolated values from the La experiments (black curve). (D) Relationship between dynamic range (η) and the free energy difference. The dashed line represents the apparent increase in La mRNA levels upon theophylline addition observed for the base shRNA (shL).
To examine the generality of shRNA switch design and functionality, Applicants designed a set of shRNA switches targeting the endogenous La protein. Following selection of an shRNA sequence that yields moderate knockdown of La as ascertained by qRT-PCR, various switching strand sequences covering a range of ΔG values were combined with the smaller theophylline aptamer to yield six shRNA switches (L1-6). […] As observed for the GFP-targeting shRNA switches, use of the stems method provided a suitable correlation between basal levels and ΔGmethod. Supplying the model with fit values for C1-3 yielded a predicted dynamic range trend that closely matched the experimental data. […]

B1: shL: base shRNA targeting endogenous La protein; sequence in Table I (pCS1457) (nucleic acid)
chain: GGATCCGGCTTCCCAACGATGATGCAACTCCTCGAGTCTAGAGGAGTTGCATCAGTTGGGAAGCCTTTTTTGGAAGCTT
modifications: the letters are possibly those of the target site
B1 was tested, and the “response of La mRNA levels to theophylline” value (1.5 mM theophylline) was “not observed” and the “fshRNA (La experiments)” value (relative knockdown of La by base shRNA) was 0.6.
